# Starred links: 1 amine or outer side, 2 acyl side, 3 side chain; linkers in the order of their positions; H or OH if unused. Positions of bridges follow the written chain, without caps; N, C: chain ends. Non-standard residues stand in square brackets, D forms with d. Primed or numbered codes have the meaning given here. No end group written: not given here. *: point of attachment. TCAZ″ = 1,1',1''-(1,4,7-triazonane-1,4,7-triyl)tris(2-chloroethan-1-one) scaffold, O=C(C[*:1])N1CCN(C(=O)C[*:2])CCN(C(=O)C[*:3])CC1; TCAZ = 1,1',1''-(1,4,7-triazonane-1,4,7-triyl)tris(2-chloroethan-1-one); TATA = O=C(CC[*:1])N1CN(C(=O)CC[*:2])CN(C(=O)CC[*:3])C1; 1Nal = N[C@@H](Cc1cccc2ccccc12)C(=O)O; Pent4ynoyl = C#CCCC(=O)*
# T1: Recombinant biotinylated human P-Selectin protein (human, UniProt P16109 42-771, limits assumed, biotinylated (site not stated))
# T1 sequence (looked up): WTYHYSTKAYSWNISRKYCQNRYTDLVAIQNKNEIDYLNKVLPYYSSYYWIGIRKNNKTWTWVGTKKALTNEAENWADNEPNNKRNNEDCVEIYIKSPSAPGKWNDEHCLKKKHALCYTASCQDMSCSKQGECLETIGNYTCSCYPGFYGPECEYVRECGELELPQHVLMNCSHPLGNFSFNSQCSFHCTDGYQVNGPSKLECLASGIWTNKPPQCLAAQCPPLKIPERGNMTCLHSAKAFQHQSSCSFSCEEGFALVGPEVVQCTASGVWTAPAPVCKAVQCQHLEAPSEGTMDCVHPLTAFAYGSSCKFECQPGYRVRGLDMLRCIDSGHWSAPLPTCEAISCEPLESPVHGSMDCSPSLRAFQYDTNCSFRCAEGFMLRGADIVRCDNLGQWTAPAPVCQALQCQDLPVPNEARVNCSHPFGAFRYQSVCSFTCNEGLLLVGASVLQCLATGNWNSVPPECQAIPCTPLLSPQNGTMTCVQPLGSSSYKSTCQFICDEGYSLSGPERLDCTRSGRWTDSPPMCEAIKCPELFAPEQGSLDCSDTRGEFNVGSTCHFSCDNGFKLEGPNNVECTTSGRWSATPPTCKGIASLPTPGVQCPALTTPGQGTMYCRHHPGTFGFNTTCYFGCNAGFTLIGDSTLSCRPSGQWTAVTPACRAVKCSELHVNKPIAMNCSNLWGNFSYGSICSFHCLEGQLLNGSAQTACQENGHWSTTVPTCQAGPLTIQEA
# Assays:
# [1] = target: T1, Recombinant biotinylated human …; assay: inhibition of 5 nM P-selectin binding to HL-60 cells (PSGL1), mirrorball cytometer, geomean of n=3
# Experimental: Bicycle test samples, SelG1 (Crizanlizumab) were serially diluted maintaining 0.5% DMSO in assay buffer (25 mM HEPES, 121 mM NaCl, 5.4 mM KCl, 0.8 mM MgCl₂, 1.8 mM CaCl₂), 6 mM NaHCO₂, 5.5 mM glucose, 1% BSA, pH7.4) and transferred to 384 well clear bottom plates (Corning, 3712) with a final volume of 6 μL. […], of P-Selectin in imaging buffer (25 mM HEPES, 121 mM NaCl, 5.4 mM KCl, 0.8 mM MgCl₂, 1.8 mM CaCl₂), 6 mM NaHCO₂, 5.5 mM glucose, pH7.4) was added to give a 5 nM final concentration and incubated at room temperature for 15 minutes. HL-60 cells (ATCC, CCL-240) mixed with 1 μg/mL far red labelled wheat germ agglutinin (WGA, ThermoFisher W21404) and 1 μg/mL AlexaFluor 488-streptavidin (Invitrogen S11223) were added to the plate and incubated for 2 hours at room temperature in the absence of light. Staining and antibody binding were quantified by simultaneously scanning the microplates with 488 nm and 640 nm lasers on a mirrorball microplate cytometer, AF488 on FL2 triggering on AF647-WGA on FL4. Data was analysed in Dotmatics, using a four parameter logistic fit to generate IC50 values and % response. Percent inhibition was calculated using 100−% response at top concentration.
# [2] = target: T1, Recombinant biotinylated human …; assay: SPR (Biacore), biotinylated human P-selectin captured on streptavidin chip, peptide as analyte
# Experimental: (§1) Biacore experiments were performed to determine ka (M−1s−1), kd (s−1), KD (nM) values of monomeric peptides binding to human Selectin proteins. Recombinant biotinylated human P-Selectin protein was used. For analysis of binding, either a Biacore 3000 or 5200 instrument was used with a CMS sensor chip (GE Healthcare). For sensor chip surface preparation, streptavidin was immobilized on the chip using standard amine-coupling chemistry at 25° C. with HBS-N (10 mM HEPES, 0.15 M NaCl, pH 7.4) as the running buffer. The carboxymethyl dextran surface was activated with a 12 min injection of a 1:1 ratio of 0.4 M 1-ethyl-3-(3-dim ethyl aminopropyl) carbodiimide hydrochloride (EDC)/0.1 M N-hydroxy succinimide (NHS) at a flow rate of 10 μl/min. For capture of streptavidin, protein was diluted to 0.2 mg/ml in 10 mM sodium acetate (pH 4.5) and captured by injecting 70 μl onto the activated chip surface. Residual activated groups were blocked with a 7 min injection of 1 M ethanolamine (pH 8.5). Biotinylated protein stock was diluted 1:100 in HBS-N and captured on one flow cell at 5 μl/min to a level of 1000-1500 RU. Buffer was changed to PBS/0.05% Tween 20 and a dilution series of the peptides was prepared in this buffer with a final DMSO concentration of 0.5%. […] In all cases a titration was performed with either seven 2-fold dilutions or five 3-fold dilutions. The SPR analysis was run at 25° C. with a flow rate of 50-80 μl/min with 60 seconds association and a suitable disassociation period (100-900 seconds). Data were corrected for DMSO excluded volume effects. All data were double-referenced for blank injections and reference surface using standard processing procedures and data processing and kinetic fitting were performed using Scrubber software, version 2.0c (BioLogic Software). Data were fitted using mass transport model allowing for mass transport effects where appropriate.
# [3] = target: T1, Recombinant biotinylated human …; assay: SPR (Biacore), biotinylated human P-selectin captured on streptavidin chip, peptide as analyte; peptide BCY12261, a separate peptide number
# Experimental: as §1, with “The SPR analysis was run at 25° C. with a flow rate of 50-80 μl/min with 60 seconds association and a suitable disassociation period (100-900 seconds). Data were corrected for DMSO excluded volume effects. All data were double-referenced for blank injections and reference surface using standard processing procedures and data processing and kinetic fitting were performed using Scrubber software, version 2.0c (BioLogic Software). Data were fitted using mass transport model allowing for mass transport effects where appropriate.” left out
# [4] = target: T1, Recombinant biotinylated human …; assay: SPR (Biacore), biotinylated human P-selectin captured on streptavidin chip, peptide as analyte; peptide BCY12259, a separate peptide number
# Experimental: as §1, with “The SPR analysis was run at 25° C. with a flow rate of 50-80 μl/min with 60 seconds association and a suitable disassociation period (100-900 seconds). Data were corrected for DMSO excluded volume effects. All data were double-referenced for blank injections and reference surface using standard processing procedures and data processing and kinetic fitting were performed using Scrubber software, version 2.0c (BioLogic Software). Data were fitted using mass transport model allowing for mass transport effects where appropriate.” left out
# [5] = target: T1, Recombinant biotinylated human …; assay: SPR (Biacore), biotinylated human P-selectin captured on streptavidin chip, peptide as analyte; peptide BCY5454, a separate peptide number
# Experimental: as §1, with “The SPR analysis was run at 25° C. with a flow rate of 50-80 μl/min with 60 seconds association and a suitable disassociation period (100-900 seconds). Data were corrected for DMSO excluded volume effects. All data were double-referenced for blank injections and reference surface using standard processing procedures and data processing and kinetic fitting were performed using Scrubber software, version 2.0c (BioLogic Software). Data were fitted using mass transport model allowing for mass transport effects where appropriate.” left out
# [6] = target: T1, Recombinant biotinylated human …; assay: SPR (Biacore), biotinylated human P-selectin captured on streptavidin chip, peptide as analyte; peptide BCY5463, a separate peptide number
# Experimental: as §1, with “The SPR analysis was run at 25° C. with a flow rate of 50-80 μl/min with 60 seconds association and a suitable disassociation period (100-900 seconds). Data were corrected for DMSO excluded volume effects. All data were double-referenced for blank injections and reference surface using standard processing procedures and data processing and kinetic fitting were performed using Scrubber software, version 2.0c (BioLogic Software). Data were fitted using mass transport model allowing for mass transport effects where appropriate.” left out
# [7] = target: T1, Recombinant biotinylated human …; assay: SPR (Biacore), biotinylated human P-selectin captured on streptavidin chip, peptide as analyte; peptide BCY5459, a separate peptide number
# Experimental: as §1, with “The SPR analysis was run at 25° C. with a flow rate of 50-80 μl/min with 60 seconds association and a suitable disassociation period (100-900 seconds). Data were corrected for DMSO excluded volume effects. All data were double-referenced for blank injections and reference surface using standard processing procedures and data processing and kinetic fitting were performed using Scrubber software, version 2.0c (BioLogic Software). Data were fitted using mass transport model allowing for mass transport effects where appropriate.” left out
# [8] = target: T1, Recombinant biotinylated human …; assay: SPR (Biacore), biotinylated human P-selectin captured on streptavidin chip, peptide as analyte; peptide BCY5458, a separate peptide number
# Experimental: as §1, with “The SPR analysis was run at 25° C. with a flow rate of 50-80 μl/min with 60 seconds association and a suitable disassociation period (100-900 seconds). Data were corrected for DMSO excluded volume effects. All data were double-referenced for blank injections and reference surface using standard processing procedures and data processing and kinetic fitting were performed using Scrubber software, version 2.0c (BioLogic Software). Data were fitted using mass transport model allowing for mass transport effects where appropriate.” left out
# [9] = target: T1, Recombinant biotinylated human …; assay: SPR (Biacore), biotinylated human P-selectin captured on streptavidin chip, peptide as analyte; peptide BCY10194 (A-(SEQ ID NO: 6)-A)
# Experimental: as §1, with “The SPR analysis was run at 25° C. with a flow rate of 50-80 μl/min with 60 seconds association and a suitable disassociation period (100-900 seconds). Data were corrected for DMSO excluded volume effects. All data were double-referenced for blank injections and reference surface using standard processing procedures and data processing and kinetic fitting were performed using Scrubber software, version 2.0c (BioLogic Software). Data were fitted using mass transport model allowing for mass transport effects where appropriate.” left out
# [10] = target: T1, Recombinant biotinylated human …; assay: SPR (Biacore), biotinylated human P-selectin captured on streptavidin chip, peptide as analyte; peptide BCY5462, a separate peptide number
# Experimental: as §1, with “The SPR analysis was run at 25° C. with a flow rate of 50-80 μl/min with 60 seconds association and a suitable disassociation period (100-900 seconds). Data were corrected for DMSO excluded volume effects. All data were double-referenced for blank injections and reference surface using standard processing procedures and data processing and kinetic fitting were performed using Scrubber software, version 2.0c (BioLogic Software). Data were fitted using mass transport model allowing for mass transport effects where appropriate.” left out
# [11] = target: T1, Recombinant biotinylated human …; assay: SPR (Biacore), biotinylated human P-selectin captured on streptavidin chip, peptide as analyte; peptide BCY12257, a separate peptide number
# Experimental: as §1, with “The SPR analysis was run at 25° C. with a flow rate of 50-80 μl/min with 60 seconds association and a suitable disassociation period (100-900 seconds). Data were corrected for DMSO excluded volume effects. All data were double-referenced for blank injections and reference surface using standard processing procedures and data processing and kinetic fitting were performed using Scrubber software, version 2.0c (BioLogic Software). Data were fitted using mass transport model allowing for mass transport effects where appropriate.” left out
binder,measurement,setting,value
"ACDADWCDVPSLPCA-NH2 (linker 2-7-14 via TCAZ″, Monomeric bicyclic peptide) [BCY11648]",IC50,[1],> 117 nM
same,Inhibition at top concentration (%),[1],37%
same,Kd,[2],128 nM
ACDADWCDVPSLPCAK(Pent4ynoyl)-NH2 (linker 2-7-14 via TCAZ″; not fully specified; also: tetramer of 4 copies via central hinge A (Tet) and spacer S1A n=23 joined to K(Pya)) [BCY12261],Kd,[3],0.019 nM
"SelG1 (Crizanlizumab) (antibody, V domains shown) VH: QVQLVQSGAEVKKPGASVKVSCKVSGYTFTSYDINWVRQAPGKGLEWMGWIYPGDGSIKYNEKFKGRVTMTVDKSTDTAYMELSSLRSEDTAVYYCARRGEYGNYEGAMDYWGQGTLVTVSS VL: DIQMTQSPSSLSASVGDRVTITCKASQSVDYDGHSYMNWYQQKPGKAPKLLIYAASNLESGVPSRFSGSGSGTDFTLTISSLQPEDFATYYCQQSDENPLTFGGGTKVEIK",IC50,[1],4.75 nM
same,Inhibition at top concentration (%),[1],96%
"Ac-CYMEWCDVTDYGC-NH2 (linker 1-6-13 via TATA, Monomeric bicyclic peptide; also called BCY09717) [BCY9717]",IC50,[1],> 10900 nM
same,Inhibition at top concentration (%),[1],20%
same,Kd,[2],7600 nM
"Ac-ACYME[1Nal]CDVTDYGCA-NH2 (linker 2-7-14 via TATA, Monomeric bicyclic peptide) [BCY11279]",IC50,[1],> 3540 nM
same,Inhibition at top concentration (%),[1],24%
same,Kd,[2],690 nM
ACDADWCDVPSLPCAK(Pent4ynoyl)-NH2 (linker 2-7-14 via TCAZ″; not fully specified; also: trimer of 3 copies via central hinge B (TCA) and spacer S1A n=23 joined to K(Pya)) [BCY12259],Kd,[4],0.233 nM
Pent4ynoyl-ACYMEWCDVTDYGCA-NH2 (linker 2-7-14 via TATA; also: tandem dimer of 2 copies via central hinge C (GTA) and spacer S1A n=10 joined to N-terminal Pya) [BCY5454],Kd,[5],400 nM
Pent4ynoyl-ACYMEWCDVTDYGCA-NH2 (linker 2-7-14 via TATA; also: tetramer of 4 copies via central hinge A (Tet) and spacer S1A n=23 joined to N-terminal Pya) [BCY5463],Kd,[6],53 nM
Pent4ynoyl-ACYMEWCDVTDYGCA-NH2 (linker 2-7-14 via TATA; also: trimer of 3 copies via central hinge B (TCA) and spacer S1A n=23 joined to N-terminal Pya) [BCY5459],Kd,[7],169 nM
Pent4ynoyl-ACYMEWCDVTDYGCA-NH2 (linker 2-7-14 via TATA; also: trimer of 3 copies via central hinge B (TCA) and spacer S1A n=10 joined to N-terminal Pya) [BCY5458],Kd,[8],400 nM
"ACDAD[1Nal]CDVPSLPCA-NH2 (linker 2-7-14 via TCAZ, Monomeric bicyclic peptide) [BCY12027]",IC50,[1],> 36.8 nM
same,Inhibition at top concentration (%),[1],36%
same,Kd,[2],5.36 nM
"ACYMEWCDVTDYGCA-NH2 (linker 2-7-14 via TATA, Monomeric bicyclic peptide) [BCY10194]",Kd,[9],9500 nM
Pent4ynoyl-ACYMEWCDVTDYGCA-NH2 (linker 2-7-14 via TATA; also: tetramer of 4 copies via central hinge A (Tet) and spacer S1A n=10 joined to N-terminal Pya) [BCY5462],Kd,[10],88 nM
ACDADWCDVPSLPCAK(Pent4ynoyl)-NH2 (linker 2-7-14 via TCAZ″; not fully specified; also: tandem dimer of 2 copies via central hinge C (GTA) and spacer S1A n=23 joined to K(Pya)) [BCY12257],Kd,[11],11.6 nM

# Reference: patent US20220339289A1 (Bicycle, published 2022)
